According to patent US20160178645A1 (University of California, published 2016):

Target: T1, human Aβ1-42 oligomers (human, UniProt P05067 672-713, fluorescently labeled in the TIRF imaging (HiLyte Fluor 647-labeled peptide bought, paragraph 100; 'AlexFlour647-conjugated' in paragraph 102); position not stated)
T1 construct: domain: Aβ1-42; Preformed oligomers; only the Aβ1-42 peptide was used; also called labeled Aβ1-42 oligomers; HiLyte Fluor 647-labeled Aβ1-42
Experiment: TIRF single molecule imaging with photobleaching of aggregates formed in Httl4A2.6 lysates (data not shown)
Procedure: Httl4A2.6 cells were treated with 0.5 μM of Aβ1-40, Aβ1-42, alpha-synuclein, and A53T alpha-synuclein, Alzheimer's disease (AD), and Parkinson's disease—associated oligomers, in the same manner as polyQ seeds. No significant enhancement of intracellular mHttex 1-GFP aggregates was detected (data not shown). Confirming results were obtained from filter retardation-GFP immunoblotting following cell-free aggregation assays; no notable changes in mHttex1 aggregation were found in the cell lysates with up to 5 μM of Aβ1-40, Aβ1-42, alpha-synuclein, and A53T alpha-synuclein oligomeric seeds (data not shown). These observations were further corroborated by the total internal reflection microscopy (TIRF) single molecule imaging results based on photobleaching of mHttex1-GFP aggregates formed in Httl4A2.6 lysates seeded with either AlexFlour647-conjugated polyQ or Aβ1-42 oligomers (data not shown). In contrast to the polyQ oligomers, which were mostly linked with mHttex1-GFP aggregates from photobleaching imaging, few labeled Aβ1-42 oligomers overlapped with GFP fluorescence from the mHttex1-GFP aggregates.

T1 sequence (P05067 672-713 limits assumed): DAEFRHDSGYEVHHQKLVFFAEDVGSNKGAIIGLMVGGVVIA

- binding result: no binding
B1: mHttex1-GFP (truncated expanded repeat Httn exon 1 protein fused at the C-terminus to EGFP) (other)
chain: MATLEKLMKAFESLKSFQQQQQQQQQQQQQQQQQQQQQQQQQQQQQQQQQQQQQQQQQQQQQQQQQQQQQQQQQQQQQQQQQQQQQQQQQQQQQQQQQQQQQQQQQQQQQQQQQQQQQQ
notes: Expressed in Httl4A2.6 inducible PC12 cells after Ponasterone A induction; tested inside cells or in cell lysate supernatants; No linker between Httn part and EGFP is described; also called N17-103Q-EGFP; GFP-tagged mHtt exon 1 protein; not shown: enhanced green fluorescent protein (EGFP), fused at the C-terminus; EGFP is an eng
